Assay: yeast display, Sf9 membrane polyspecificity reagent, FACS + sequencing; frameworks hold sequencing errors
In short: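 Using colony PCR, genes from sorted yeast display clones were amplified, then sequenced on MiSeq at 2 × 250 and filtered by CDR length. The clones had been stained with 10% biotinylated, detergent-solubilized Sf9 membrane reagent for 1 hour at 4 °C and sorted by FACS into low and high (top ~1%) gates on anti-HA and streptavidin fluorescence. Polyreactivity labels come from the gate of origin.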

Row | Sequence | polyreactivity (PSR sort gate)
1 | QVQLVESGGGLVQAGGSLRLSCAASGRIFHWYAMGWYRQAPGKERELVAAIRWTGGSTYYADSVKGRFTISRDNAKNTVYLQMNSLKPEDTAVYYCAAKGYTGIFYEMDYWGQGTQVTVSS | low polyreactivity
2 | QVQLVESGGGLVQAGGSLRLSCAASGRIFHWYTMGWYRQAPGKERELVATITDGGSTYYADSVKGRFTISRDNAKNTVYLQMNSLKPEDTAVYYCAARKIGTRRLRYPYYIFGYWGQGTQVTVSS | high polyreactivity
3 | QVQLVESGGGLVQAGGSLRLSCAASGRIFHYNAMGWYRQAPGKEREFVASISGSGGRTYYADSVKGRFTISRDNAKNTVYLQMNSLKPEDTAVYYCAASYYGHRYWGQGTQVTVSS | low polyreactivity
4 | QVQLVESGGGLVQAGGSLRLSCAASGRIFHYYAMGWYRQAPGKERELVAAINKSGGRTYYADSVKGRFTISRDNAKNTVYLQMNSLKPEDTAVYYCAADVPGVTTSYAPYDSDYWGQGTQVTVSS | high polyreactivity
5 | QVQLVESGGGLVQAGGSLRLSCAASGRIFHYYAMGWYRQAPGKERELVAAISNTDGSTYYADSVKGRFTISRDNAKYTVYLQMNSLKPEDTAVYYCAADSLGALYRGNYPYGYWGQGTQVNVSS | high polyreactivity
6 | QVQLVESGGGLVQAGGSLRLSCAASGRIFHYYAMGWYRQAPGKERELVAASTFRGGNTYADSVKGRFTISRDNAKNTVYLQMNSLKPEDTAVYYCADSRLSGYYSRYGYWGQGTQVTVSS | high polyreactivity
7 | QVQLVESGGGLVQAGGSLRLSCAASGRIFHYYAMGWYRQAPGKERELVAGITSGGSTYYADSVKGRFTISRDNAKNTVYLQMNSLKPEDTAVYYCATTRYGGSRRYRPYDRERDYWGLGTQVTVSS | low polyreactivity
8 | QVQLVESGGGLVQAGGSLRLSCAASGRIFIEYAMGWYRQAPGKERELVATINSSGGRTYYADSVKGRFTISRDNAKNTVYLQMHSLKPEDTAVYYCNADVGLLYTETYEYDYWGQGTQVTVSS | low polyreactivity
9 | QVQLVESGGGLVQAGGSLRLSCAASGRIFIFNAMGWYRQAPGKERELVAAISTRGGSTRYADSVKGRFTISRDNAKNTVYLQMNSLKPEDTAVYYCAAVYLYYAYAFDYWGQGTQVTVSS | high polyreactivity
10 | QVQLVESGGGLVQAGGSLRLSCAASGRIFIGNAMGWSRQAPGKERELVAAISSSGGSTYYADSVKGRFTISRDNAKNTVYLQMNSLKPEDTAVYYCAAETKNAPRFYPYSNEGYYYWGHGTQVTVSS | low polyreactivity
11 | QVQLVESGGGLVQAGGSLRLSCAASGRIFIGNAMGWYRQAPGKERELVADISYSGGTTYYADSVKGRFTISRDNAKNTVYLQMNSLKPEDTAVYYCNKYDPRPVWQGWVWIEYYYWGQGTQVTVSS | low polyreactivity
12 | QVQLVESGGGLVQAGGSLRLSCAASGRIFIHNAMGWYRQAPGKERELVAAISSRGSRTSYADSVKGRFTISRDNAKNTVYLQMNSLKPEDTSVYYCNAAPIAKYDYWGQGTQVTVSS | high polyreactivity
13 | QVQLVESGGGLVQAGGSLRLSCAASGRIFIHYAMGGYRHAPGKERELVAAISASGGTTNYADSVKGRFTISRDNAKNTVYLQMNSLKPEDTAVYYCNKDYPQNPLPASSYYLGRFDYWGQGSQVTVSS | high polyreactivity
14 | QVQLVESGGGLVQAGGSLRLSCAASGRIFIPYAMGWYIQAPGKERELVAAISSSGGSTYYADSVKGRFTISRDTAKNTVYLQMNSLKPEDTEVYFCAARLYWGYAYENYSSLFEYDYWGQGTQVTVSS | low polyreactivity
15 | QVQLVESGGGLVQAGGSLRLSCAASGRIFIRAMGWYRQAPGKERELVAGITNGGITYYADSVKGRFTISRDNAKNTVYLQMISLKPEDTAVYFCNDRSSSVDYNYDYWGQGTQVTVSS | low polyreactivity
16 | QVQLVESGGGLVQAGGSLRLSCAASGRIFITNAMGWYRPAPGKERELVAVISYIGGRTYYADSVKGRFTISRDNAKNTVYLQMNSLKPEDTAVYYCAARRSRPTYFSTGVNYWGQGTQVTVSS | high polyreactivity
17 | QVQLVESGGGLVQAGGSLRLSCAASGRIFITYAMGWYRPAPGTERELVAAIDSRGGSTYYADSVKGRFTISRDNAKNTDYLQMNSLKPEDTSVNYCAAEFYYIWLYEYWGQGTQVTVSS | high polyreactivity
18 | QVQLVESGGGLVQAGGSLRLSCAASGRIFIYYAMGWYRQAPGKERELVAAISWGGGRTYYADSVKGRFTLSRYNAKNTVYLQMNSLKPEDTAVYYCAAGVYTGQNEYDYWGQGTQVTVSS | low polyreactivity
19 | QVQLVESGGGLVQAGGSLRLSCAASGRIFIYYTMGWYRPAPGKERELVASITWSGGRTYYADSVKGRFTISRDNAKNTVYLQMNSLKPEDNAVYYCNAGYSIGLVAYGYWGQGTQVTVSS | low polyreactivity
20 | QVQLVESGGGLVQAGGSLRLSCAASGRIFKAYAMGWYRQAPGKERELVAAITSTGSTYYADSVKGRFTISRDNAKNTVYLQMNSLKPEDTAVYSCARRPSYYQGDYWGQGTQVTVSS | high polyreactivity
21 | QVQLVESGGGLVQAGGSLRLSCAASGRIFKDHAMGWYRQAPGKERELVAGITSIGDNTYYADSVKGRFTISRDNAKNTVYLQMNSLKPEHTAVYYCNADYGYDSVVEYDYWGQGTQVTVSS | low polyreactivity
22 | QVQLVESGGGLVQAGGSLRLSCAASGRIFKFYAMGWYRQAPGKERELVAAISRTGGNTYYADSVKGRFTISRDNAKNTVYLQMNSLKPEDTAVYYCAAETYARSSSSKYEYWGQGTQVTVSS | high polyreactivity

Row | Sequence | polyreactivity (PSR sort gate)
23 | QVQLVESGGGLVQAGGSLRLSCAASGRIFKGYAMGWYRQAPGKERELVAAITWRGGTTYYADSVKGRFTISRDNAKNTVYLQMNSLKPEDTAVYYCAVSGKTAHSPQRYYYWGQGTQVTVSS | high polyreactivity
24 | QVQLVESGGGLVQAGGSLRLSCAASGRIFKIYAMGWYRQAPGKERELVAAISRGGRTYYADSVKGRFTISRDNAKNTVYLQMNSLKPEDTAVYYCAADLLISPEFYYWGQGTQVTVSS | high polyreactivity
25 | QVQLVESGGGLVQAGGSLRLSCAASGRIFKKNAMGWYRQAPGKERELVAAISYRGGSTYYADSVKGRFTISRDNAKNTVYLQMNSLKPEDTAVYYCNVGSRGGWDASDYDYWGQGTQVTVSS | high polyreactivity
26 | QVQLVESGGGLVQAGGSLRLSCAASGRIFKLYAMGWDRQAPGKERELVAAISKSGGNTYADSVKGRFTISRDNAKNTVYLQMNSLKPEDTAVYYCAATVQSTSDPFDYWGQGTQVTVSS | low polyreactivity
27 | QVQLVESGGGLVQAGGSLRLSCAASGRIFKLYAMGWYRQAPGKERELGAAISTSAGSTNYADSEKGRFTISRDNAKNTVYLQMNSLKPEDPAVYYCAVAGVSTYYTYYYWGQGTQVTVSS | low polyreactivity
28 | QVQLVESGGGLVQAGGSLRLSCAASGRIFKLYAMGWYRQAPGKERELVAAISTSAGSTNYADSVKGRFTISRDNEKNTVYLQMNSLKPEDTAVYYCAVAGVSTYYTYYYWGQGTQVTVSS | low polyreactivity
29 | QVQLVESGGGLVQAGGSLRLSCAASGRIFKQYALGWYRQAPGKERELVAAISVRGGITYYADSVKGRFTISRDNAKNTVYLQMNSLKPEDTAVYYCAKRSYRTHTYDYWGQGTQVTVSS | low polyreactivity
30 | QVQLVESGGGLVQAGGSLRLSCAASGRIFKQYAMGWYRQAPGKERELVAAISWDGGSTYYADSVKGRFTISRDNAKNTVYLQMNSLKPEDTAVYDCNKDLYYAYDYWGQGTQVTVSS | low polyreactivity
31 | QVQLVESGGGLVQAGGSLRLSCAASGRIFKRNAMGWYRQAPGKERELVAAISSGTSTNYADSVKGRFTISRDNAKNTVYLQMNSLKPEDTAVYYCAVRPVDYRGYYYWGQGTQVTVSS | high polyreactivity
32 | QVQLVESGGGLVQAGGSLRLSCAASGRIFKRYTMGWYRQAPGQERELVAGITFSGGSTYYADSVKGRFTISRDNAKNTVYLQMNSLKPEDTAVYYCNARVPPQGWGPWKAFDYWGQGTQVTVSS | low polyreactivity
33 | QVQLVESGGGLVQAGGSLRLSCAASGRIFKSYAMGWYRPAPGKERELVAAINWSGGSTYYADSVKGRFTISRDTAKNTVYLQMNSLKPEDTAVYYCNALYAVRSYDSWGQGTQVTVSS | high polyreactivity
34 | QVQLVESGGGLVQAGGSLRLSCAASGRIFKTNAMGWYRQAPGKERELVAGITSGGGTNYADSVKGRFTISRDNAKNTVYLQMNSLKPEDTAVYYCAKDRNFRHIKYSWGGYPYTMDYWGQGTQVTVSS | low polyreactivity
35 | QVQLVESGGGLVQAGGSLRLSCAASGRIFKTYAMGWYRQAPGKERELVAAITSGGSTYYADSVKGRFTISRDNAKNTVYLQMNSLKPEDTAVYYCNRVYRYVYSWAYNYWGQGTQVTVSS | high polyreactivity
36 | QVQLVESGGGLVQAGGSLRLSCAASGRIFKTYAMGWYRQAPGKERELVAAITWDVVRTYYADSVKGRFTISRDNAKNTVYLQMNSLKPEETAVYYCAAEGIRRSQRFNYWGQGTQVTVSS | high polyreactivity
37 | QVQLVESGGGLVQAGGSLRLSCAASGRIFKVYTMGWYRQAPGKERELVATITRSGTSTYYADSVKGRFTISRDNAKNTVYLQMNSLKPEDTAVYYCARRVGYKFSYDYWGQGTQVTVSS | high polyreactivity
38 | QVQLVESGGGLVQAGGSLRLSCAASGRIFKWYAMGWYRQAPGKEREFVAGIRWGGGRTHYADSVKGRFTISRDNAKNTVYLQMNSLKPEDTAVYYCAATSIGRYKSRLDYWGQGTQVTVSS | high polyreactivity
39 | QVQLVESGGGLVQAGGSLRLSCAASGRIFKYNAKGWYRQAPGKERELVAAISGTGGSTYYADSVKGRFTISRDNAKNTVYLQMNSLKPEDTAVYYCNRRYYGHSTWKYDYWAQGTQVTVSS | high polyreactivity
40 | QVQLVESGGGLVQAGGSLRLSCAASGRIFKYYAMGWYREAPGKERELVAAIDWRGDSTYYADSVKGRFTISRDHAKNTVYLQMNSLKPEDTAVYYCAVVGTRGYHGYDSWGQGTQVTVSS | low polyreactivity
41 | QVQLVESGGGLVQAGGSLRLSCAASGRIFKYYAMGWYRPAPGKERELVAAISRSSGRTYYADSVKGRFTISRDNAKNTVYFQMNSLKPEDTAVYYCNALPSTVYLTYDYWGQGTQVTVSS | high polyreactivity
42 | QVQLVESGGGLVQAGGSLRLSCAASGRIFKYYAMGWYRQAPGKERELVAAISQNGGRTYYADSVKGRFTISRDNAKNTVYLQMNSLKPEDTAVYYCAAGWRSYAGYYQGEFGYWGQGTQVTVSS | high polyreactivity
43 | QVQLVESGGGLVQAGGSLRLSCAASGRIFKYYAMGWYRQAPGKERELVAAISRSGGRTYYADSVKGRFTISRDNAKNTVYLQMNSLKPEDTAVYYCNARVYSGHNYWGQGTQVTVSS | high polyreactivity

Source: the nanobody polyreactivity screen of Harvey et al. (2022)
